Experimental data taken from patent publication US12269859B2, “Synthetic immune receptors and methods of use thereof” (Angeles Therapeutics, Inc., priority 2016, dated 2025).

System: target antigen-expressing cell line
Assay: Jurkat NFAT-GFP assay, coculture with target cell lines expressing the respective target antigen (summary Table 10A)
Format: cell-based, human
Design: key: The signs +/−, +, 2+ etc. after the name of the cell lines indicate the relative degree of positivity on the Jurkat-NFAT-GFP assay as measured by the % GFP positive cells; +: relative degree of positivity on the Jurkat-NFAT-GFP assay as measured by the % GFP positive cells; 2+: relative degree of positivity on the Jurkat-NFAT-GFP assay as measured by the % GFP positive cells
Conditions: relative % GFP positive cells; for NFAT-GFP ASSAY Positive Cell lines: NALM6: SIR-expressing Jurkat-NFAT-GFP cells cocultured with NALM6; for NFAT-GFP ASSAY Positive Cell lines: RAJI: SIR-expressing Jurkat-NFAT-GFP cells cocultured with RAJI
Procedure, shortened: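 Readout is % GFP+ cells by FACS, graded +/− to 2+ relative to parental reporter cells. Jurkat-NFAT-GFP cells stably transduced with SIR constructs (puromycin-selected) were mixed with target-antigen-expressing cell lines at roughly 1:2 effector:target and cocultured ~4–18 h.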

Molecule	NFAT-GFP ASSAY Positive Cell lines: NALM6	NFAT-GFP ASSAY Positive Cell lines: RAJI	NFAT-GFP ASSAY Positive Cell lines: L363 (SIR-expressing Jurkat-NFAT-GFP cells cocultured with L363)	NFAT-GFP ASSAY Positive Cell lines: U266 (SIR-expressing Jurkat-NFAT-GFP cells cocultured with U266)
030217-H02 (protein) MALPVTALLLPLALLLHAARPDEIVLTQSPATLSLSPGERATLSCSASSSVSYMHWYQQKPGQAPRLLIYDTSKLASGIPARFSGSGSGTDFTLTISSLEPEDVAVYYCFQGSVYPFTFGQGTKLEIKRGGGGSGGGGSGGGGSQVQLQESGPGLVKPSQTLSLTCTVSGGSISTSGMGVGWIRQHPGKGLEWIGHIWWDDDKRYNPALKSRVTISVDTSKNQFSLKLSSVTAADTAVYYCARMELWSYYFDYWGQGTLVTVSSLEGKPIPNPLLGLDSTGSGEDLKNVFPPEVAVFEPSKAEIAHTQKATLVCLATGFYPDHVELSWWVNGKEVHSGVCTDPQPLKEQPALNDSRYCLSSRLRVSATFWQNPRNHFRCQVQFYGLSENDEWTQDRAKPVTQIVSAEAWGRADCGITSASYHQGVLSATILYEILLGKATLYAVLVSALVLMAMVKRKDSRGRAKRSGSGATNFSLLKQAGDVEENPGPTSMALPVTALLLPLALLLHAARPDIQMTQSTSSLSASLGDRVTISCSASQGINNYLNWYQQKPDGTVELLIYYTSTLQSGVPSRFSGSGSGTDYSLTISNLEPEDIGTYYCQQYSKLPRTFGGGTKLEIKGGGGSGGGGSGGGGSQVQLQQSGSELMMPGASVKISCKATGYTFSNYWIEWVKQRPGHGLEWIGEILPGTGRTIYNEKFKGKATFTADISSNTVQMQLSSLTSEDSAVYYCARRDYYGNFYYAMDYWGQGTSVTVSSTREQKLISEEDGSGIQNPDPAVYQLRDSKSSDKSVCLFTDFDSQTNVSQSKDSDVYITDKCVLDMRSMDFKSNSAVAWSNKSDFACANAFNNSIIPEDTFFPSSDVPCDVKLVEKSFETDTNLNFQNLSVIGFRILLLKVAGFNLLMTLRLWSSRAKRSGSGVKQTLNFDLLKLAGDVESNPGPSRGHMTEYKPTVRLATRDDVPRAVRTLAAAFADYPATRHTVDPDRHIERVTELQELFLTRVGLDIGKVWVADDGAAVAVWTTPESVEAGAVFAEIGPRMAELSGSRLAAQQQMEGLLAPHRPKEPAWFLATVGVSPDHQGKGLGSAVVLPGVEAAERAGVPAFLETSAPRNLPFYERLGFTVTADVEVPEGPRTWCMTRKPGA	(+)	RAJI (2+), NALM6	–	–
040716-I04 (protein, Synthetic polynucleotide encoding a SIR) MALPVTALLLPLALLLHAARPDEIVLTQSPATLSLSPGERATLSCSASSSVSYMHWYQQKPGQAPRLLIYDTSKLASGIPARFSGSGSGTDFTLTISSLEPEDVAVYYCFQGSVYPFTFGQGTKLEIKRGGGGSGGGGSGGGGSQVQLQESGPGLVKPSQTLSLTCTVSGGSISTSGMGVGWIRQHPGKGLEWIGHIWWDDDKRYNPALKSRVTISVDTSKNQFSLKLSSVTAADTAVYYCARMELWSYYFDYWGQGTLVTVSSLEGKPIPNPLLGLDSTGSGEDLKNVFPPEVAVFEPSKAEIAHTQKATLVCLATGFYPDHVELSWWVNGKEVHSGVCTDPQPLKEQPALNDSRYCLSSRLRVSATFWQNPRNHFRCQVQFYGLSENDEWTQDRAKPVTQIVSAEAWGRADCGITSASYHQGVLSATILYEILLGKATLYAVLVSALVLMAMVKRKDSRGRAKRSGSGATNFSLLKQAGDVEENPGPTSTMALPVTALLLPLALLLHAARPDIVMTQTPLTLSVTIGQPASISCKSSQSLLDSDGKTYLNWLLQRPGQSPERLIYLVSKLDSGVPDRFTGSGSGTDFTLKISRVEAEDLGVYCCWQGTHFPYTFGGGTKVEIKGGGGGSGGGGSGGGGSQVQLQQPGAELVRPGASVKLSCKASGYTFTSYWMNWVKQRPGQGLEWIGMIDPSDSETHYNHIFKDKATLTVDKSSSTAYLQLSSLTSEDSAVYYCARNLYLWGQGTSVTVSSTREQKLISEEDGSGIQNPDPAVYQLRDSKSSDKSVCLFTDFDSQTNVSQSKDSDVYITDKCVLDMRSMDFKSNSAVAWSNKSDFACANAFNNSIIPEDTFFPSSDVPCDVKLVEKSFETDTNLNFQNLSVIGFRILLLKVAGFNLLMTLRLWSSRAKRSGSGVKQTLNFDLLKLAGDVESNPGPSRGHMTEYKPTVRLATRDDVPRAVRTLAAAFADYPATRHTVDPDRHIERVTELQELFLTRVGLDIGKVWVADDGAAVAVWTTPESVEAGAVFAEIGPRMAELSGSRLAAQQQMEGLLAPHRPKEPAWFLATVGVSPDHQGKGLGSAVVLPGVEAAERAGVPAFLETSAPRNLPFYERLGFTVTADVEVPEGPRTWCMTRKPGA	–	RAJI (+/−), U266	(+/−), L363 (+/−)	(+/−), L363 (+/−)
030217-G04 (protein) MALPVTALLLPLALLLHAARPDEIVLTQSPATLSLSPGERATLSCSASSSVSYMHWYQQKPGQAPRLLIYDTSKLASGIPARFSGSGSGTDFTLTISSLEPEDVAVYYCFQGSVYPFTFGQGTKLEIKRGGGGSGGGGSGGGGSQVQLQESGPGLVKPSQTLSLTCTVSGGSISTSGMGVGWIRQHPGKGLEWIGHIWWDDDKRYNPALKSRVTISVDTSKNQFSLKLSSVTAADTAVYYCARMELWSYYFDYWGQGTLVTVSSLEGKPIPNPLLGLDSTGSGEDLKNVFPPEVAVFEPSKAEIAHTQKATLVCLATGFYPDHVELSWWVNGKEVHSGVCTDPQPLKEQPALNDSRYCLSSRLRVSATFWQNPRNHFRCQVQFYGLSENDEWTQDRAKPVTQIVSAEAWGRADCGITSASYHQGVLSATILYEILLGKATLYAVLVSALVLMAMVKRKDSRGRAKRSGSGATNFSLLKQAGDVEENPGPTSMALPVTALLLPLALLLHAARPDDIVMTQSPDSLTVSLGERTTINCKSSQSVLDSSKNKNSLAWYQQKPGQPPKLLLSWASTRESGIPDRFSGSGSGTDFTLTIDSLQPEDSATYYCQQSAHFPITFGQGTRLEIKGGGGSGGGGSGGGGSQVQLVQSGAEVKKPGASVKVSCKASGYTFTNYGMNWVKQAPGQGLKWMGWINTYTGEPTYADDFKGRVTMTSDTSTSTAYLELHNLRSDDTAVYYCARWSWSDGYYVYFDYWGQGTTVTVSSTREQKLISEEDGSGIQNPDPAVYQLRDSKSSDKSVCLFTDFDSQTNVSQSKDSDVYITDKCVLDMRSMDFKSNSAVAWSNKSDFACANAFNNSIIPEDTFFPSSDVPCDVKLVEKSFETDTNLNFQNLSVIGFRILLLKVAGFNLLMTLRLWSSRAKRSGSGVKQTLNFDLLKLAGDVESNPGPSRGHMTEYKPTVRLATRDDVPRAVRTLAAAFADYPATRHTVDPDRHIERVTELQELFLTRVGLDIGKVWVADDGAAVAVWTTPESVEAGAVFAEIGPRMAELSGSRLAAQQQMEGLLAPHRPKEPAWFLATVGVSPDHQGKGLGSAVVLPGVEAAERAGVPAFLETSAPRNLPFYERLGFTVTADVEVPEGPRTWCMTRKPGA	RAJI (+), NALM6 (+)	RAJI (+), NALM6 (+)	–	–
